Test results: patent publication US20200010567A1 (NEURIMMUNE, published 2020)

T1: aggregated C9orf72 (GA)20 DPR protein peptide preparation (C-terminal amide)
T1 construct: also called aggregated (GA)20; amyloid-fibril like aggregated (GA)20
T1 peptide: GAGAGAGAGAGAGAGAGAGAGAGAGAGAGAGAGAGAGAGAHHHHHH

T2: monomeric C9orf72 (GA)20 DPR protein peptide preparation (C-terminal amide)
T2 construct: also called monomeric (GA)20
T2 peptide: T1 peptide

T3: GA6: H-(GA)6HHHHHH-NH2
T3 peptide: H-GAGAGAGAGAGAHHHHHH-NH2

T4: (GP)15: H-C(GP)15-OH
T4 construct: synthetic, not coupled to BSA; also called poly-GP DPR protein peptide
T4 peptide: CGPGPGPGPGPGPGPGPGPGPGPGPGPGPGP

B1: NI-308.18F7 (antibody, V domains shown)
VH: QVQLQESGPGLVKPSETLSVTCTVSGGSINDYYWNWIRQPAGKGLEWIGRIYASGTINYNPSLQSRVTMSIDTSKNQFSLDLISVSAADTAVYYCARWGQVVGDYYYGMDVWGQGTTVTVSS
VL: EIVLTQSPLSLSVTPGEPASISCKSSQSLQHTNGYNYLDWYLLKPGQSPQLLIFLTSNRASGVPDRFSGSGSGTNFTLKISRVEAEDVGVYYCMEGIQLWTFGQGTKLEIK
notes: Recombinant complete human IgG1, kappa
B2: NI-308.15O7 (antibody, V domains shown)
VH: QVQLVESGGGVVQPGRSLRLSCAASGFTFSNHAMHWVRQAPGKGLEWVAVISYDGENTYYADSIEGRFTISRDNFKNTLFLQMYSLTADDTAMYFCARGGRRGHFTSYYLDYWGQGTLVTVSS
VL: CDIQMTQSPSSLSASVGDRVTITCRASQNIDKYLNWYQQIPGKAPKLLIYAASSLHSGVPSRFSGSGSGTDFSLTISSLQPEDFAIYYCQQSYSSFRTFGQGTKLEIK
B3: NI-308.28G1 (antibody, V domains shown)
VH: QVQLQESGPRLVKPSETLSLTCTVAGGSVNSYYWTWIQQSPGKGLEWLGRIYIAGRTNYNPSLTSRIALSVDTSRNQLSLKLTSVTAADTAIYYCARWGAESGDYYYGVDVWGPGTLVTVSS
VL: EIVMTQSPLSLPVTPGEPASISCKSSEGLLHSNGYTYLDWYLQKPGQAPQLLIFLASNRAAGVPDRFSGSGSGTDFTLKISRVEAEDVGVYYCMQAIQSPWTFGPGTKVEIK
notes: as for B1
B4: NI-308.46E9 (antibody, V domains shown)
VH: QVQLQESGPGLVKPSETLSLTCTVSGASISGSTYYWGWIRQPPGKGLEYIGRIYYSGSTYYNPSLKSRATISVDTSKNQLSLTLSSVTAADTAVYYCVRPFYAGSGNSPFDYWGQGTLVTVSS
VL: CEIVLTQSPATVSVSPGERATLSCRASQSVSTNLAWYQQKPGQPPRLLIYGASTRATGIPARFSGSGSGAEFTLTISSLQSEDFVVYYCQQYNNWPPAFGGGTKVEIK
notes: as for B1
B5: NI-308.5G2 (antibody, V domains shown)
VH: EVQLVQSGADLRNPGASVTVSCTASGYHFADNAINWLRQAPGQRLEWMGWINIYSGNTKYSQNFQGRVTFTRNTSASTAFMHLRSLRSEDTAVYFCARDPDSSGYYLPYFDYWGQGTLVTVSS
VL: DIQLTQSPDSLTLSLGERATINCKSSQSVFYNSNNKNYLAWYQQKPGQPPKLLMYWASTRESGVTDRFSGSGSGTDFTLTITNLQAEDVAVYYCQQFYSSPLTFGGGTKVEIK
notes: as for B1

Legend:
[1] = target: T1, aggregated C9orf72 (GA)20 DPR protein …; test: indirect ELISA, coated preparation 5 ug/ml
Description: (§1) 96-well microplates (Corning Incorporated, Corning, USA) were coated with monomeric and aggregated (GA)₂₀ DPR protein peptide preparations at a concentration of 5 μg/ml in coating buffer (15 mM Na₂CO₃, 35 mM NaHCO₃, pH 9.42). Non-specific binding sites were blocked for 1 h at room temperature with PBS/0.1% Tween®-20 containing 2% BSA (Sigma-Aldrich, Buchs, Switzerland). Primary antibodies were diluted to the indicated concentrations and incubated 1 h at room temperature, followed by incubation with a donkey anti-human IgG Fcγ-specific antibody conjugated with HRP (Jackson ImmunoResearch Laboratories, Inc., West Grove, USA). Binding was determined by measurement of HRP activity in a standard colorimetric assay. EC₅₀ values were estimated by non-linear regression using GraphPad Prism software (San Diego, USA).

[2] = target: T2, monomeric C9orf72 (GA)20 DPR protein …; test: indirect ELISA, coated preparation 5 ug/ml
Description: as §1

GA6: H-(GA)6HHHHHH-NH2 = target: T3, GA6: H-(GA)6HHHHHH-NH2; test: indirect ELISA, coated His-tagged peptide; indirect ELISA, peptide coated directly on the plate
Text: In brief, dipeptide repeat proteins were synthesized and purified by Schafer-N (Copenhagen, Denmark): GA₂₀: H-(GA)₂₀HHHHHH-NH₂; GA₁₀: H-(GA)₁₀HHHHHH-NH₂; GA₆: H-(GA)₆HHHHHH-NH₂; GA₅: H-(GA)₅HHHHHH-NH₂; GA₄: H-(GA)₄HHHHHH-NH₂; GA₃: H-(GA)₃HHHHHH-NH₂; GA₂: H-(GA)₂HHHHHH-NH₂; GP₂₀: H-(GP)₂₀HHHHHH-NH₂; GP₁₀: H-(GP)₁₀HHHHHH-NH₂; GP₆: H-(GP)₆HHHHHH-NH₂; GP₅: H-(GP)₅HHHHHH-NH₂; GP₄: H-(GP)₄HHHHHH-NH₂; GP₃: H-(GP)₃HHHHHH-NH₂; GP₂: H-(GP)₂HHHHHH-NH₂. GR₂₀: H-(GR)₂₀HHHHHH-NH₂; GR₁₀: H-(GR)₁₀HHHHHH-NH₂; GR₆: H-(GR)₆HHHHHH-NH₂; GR₅: H-(GR)₅HHHHHH-NH₂; GR₄: H-(GR)₄HHHHHH-NH₂; GR₃: H-(GR)₃HHHHHH-NH₂; GR₂: H-(GR)₂HHHHHH-NH₂; PA₂₀: H-(PA)₂₀HHHHHH-NH₂; PA₁₀: H-(PA)₁₀HHHHHH-NH₂; PA₆: H-(PA)₆HHHHHH-NH₂; PA₅: H-(PA)₅HHHHHH-NH₂; PA₄: H-(PA)₄HHHHHH-NH₂; PA₃: H-(PA)₃HHHHHH-NH₂; PA₂: H-(PA)₂HHHHHH-NH₂; PR₂₀: H-(PR)₂₀HHHHHH-NH₂; PR₁₀: H-(PR)₁₀HHHHHH-NH₂; PR₆: H-(PR)₆HHHHHH-NH₂; PR₅: H-(PR)₅HHHHHH-NH₂; PR₄: H-(PR)₄HHHHHH-NH₂; PR₃: H-(PR)₃HHHHHH-NH₂; PR₂: H-(PR)₂HHHHHH-NH₂. 96-well microplates (Corning Incorporated, Corning, USA) were coated with dipeptide repeat protein peptides at a concentration of 50 μg/ml in coating buffer (15 mM Na₂CO₃, 35 mM NaHCO₃, pH 9.42). Non-specific binding sites were blocked for 1 h at room temperature with PBS/0.1% Tween®-20 containing 2% BSA (Sigma-Aldrich, Buchs, Switzerland). Primary antibodies were diluted to the indicated concentrations and incubated 1 h at room temperature, followed by incubation with a donkey anti-human IgG Fcγ-specific antibody conjugated with HRP (Jackson ImmunoResearch Laboratories, Inc., West Grove, USA). Binding was determined by measurement of HRP activity in a standard colorimetric assay. EC₅₀ values were estimated by non-linear regression using GraphPad Prism software (San Diego, USA).

(GP)15: H-C(GP)15-OH = target: T4, (GP)15: H-C(GP)15-OH; test: indirect ELISA, coated uncoupled peptide
Description: In brief, dipeptide repeat proteins were synthesized and purified by Schafer-N(Copenhagen, Denmark): (GA)₁₅: H-CHHHHHH(GA)₁₅-OH; (GP)₁₅: H-C(GP)₁₅-OH; (GR)₁₅: H-C(GR)₁₅-OH; (PA)₁₅: H-C(PA)₁₅-OH; (PR)₁₅: H—C(PR)₁₅-OH. 96-well microplates (Corning Incorporated, Corning, USA) were coated with dipeptide repeat protein peptides at a concentration of either 5 μg/ml or 20 μg/ml in coating buffer (15 mM Na₂CO₃, 35 mM NaHCO₃, pH 9.42). Non-specific binding sites were blocked for 1 h at room temperature with PBS/0.1% Tween®-20 containing 2% BSA (Sigma-Aldrich, Buchs, Switzerland). Primary antibodies were diluted to the indicated concentrations and incubated for 1 h at room temperature, followed by incubation with a donkey anti-human IgG Fcγ-specific antibody conjugated with HRP (Jackson ImmunoResearch Laboratories, Inc., West Grove, USA). Binding was determined by measurement of HRP activity in a standard colorimetric assay. EC₅₀ values were estimated by non-linear regression using GraphPad Prism software (San Diego, USA). The binding specificity and EC₅₀ of human-derived antibodies for C9orf72 dipeptide repeat protein peptides (GA)₁₅, (GP)₁₅, (GR)₁₅, (PA)₁₅ and (PR)₁₅ were determined by indirect ELISA.

Row | Binder | EC50 [1] [nM] | EC50 [2] [nM] | EC50 (GA6: H-(GA)6HHHHHH-NH2) [nM] | EC50 ((GP)15: H-C(GP)15-OH) [nM]
1 | B1 | 0.89 | 0.87 | – | –
2 | B2 | 0.78 | 0.53 | 7.9 | –
3 | B3 | – | – | 6.3 | –
4 | B4 | – | – | – | 13.9
5 | B5 | – | – | – | 0.88
